This note sets out measurements from patent publication US20260184766A1.

Assay [1] concerns the target T1, SARS CoV-2 spike trimer protein from the parental Wuhan-Hu-1 isolate (recombinant stabilized extracellular domain) (SARS-CoV-2 (Wuhan-Hu-1)). As to the kind of experiment: ELISA, spike coated, chimeric IgG1. To be noted: remark: other sources report otherwise.
Assay [2] addresses T1, SARS CoV-2 spike trimer protein from …. As to the kind of experiment: ELISA on coated recombinant stabilized spike protein, panel WT, OD 450. To be noted: remark: other sources report otherwise.
For assay [3], the target named is SARS-CoV-2 (antigen of the ELISA of FIG. 5E). As to the kind of experiment: ELISA on SARS-CoV-2 antigen (spike or RBD not stated), OD 450. A general note: In an ELISA, binding on a coated surface is turned into a signal by an enzyme label.
In assay [4] the target is T1, SARS CoV-2 spike trimer protein from …. As to the kind of experiment: ELISA on coated spike protein, anti-human Fc-HRP, OD450. The conditions noted are these: remark: other sources report otherwise.

B1: SKM chimeric bovine-human IgG1 (ultralong CDR3) (antibody)
VH: QVQLRESGPSLVKPSQTLSLTCTASGFSLSDKAVGWVRQAPGKALEWLGSIDTGGNTGYNPGLKSRLSITKDNSKSQVSLSVSSVTTEDSATYYCTTVHQETLRSCPDGYIDNSGCTADWGCAALDCWRRRFGYHSTDPSHYTGATYIYTYSLHIDAWGQGLLVTVSS
VL: QAVLNQPSSVSGSLGQRVSITCSGSSSNVGNGYVSWYQLIPGSAPRTLIYGDTSRASGVPDRFSGSRSGNTATLTISSLQAEDEADYFCASAEDSSSNAVFGSGTTLTVL
Turning to B1, in assay [1], the EC50 – broadly, the concentration giving half of the maximal effect – came to 190 pM. Moreover, in assay [2], the EC50 (read off the curve) (as a rule, the concentration at which the effect is half-maximal) is 200 pM.

B2: SKD chimeric bovine-human IgG1 (ultralong CDR3) (antibody)
VH: QVQLRESGPSLVKPSQTLSLTCTASGFSLSDKAVGWVRQAPGKALEWLGSIDTGGNTGYNPGLKSRLSITKDNSKSQVSLSVSSVTTEDSATYYCTTVHQRTSEKRSCPGGSSRRYPSGASCDVSGGACACYVSNCRGVLCPTLNEIVAYTYEWHVDAWGQGLLVTVSS
VL: QAVLNQPSSVSGSLGQRVSITCSGSSSNVGNGYVSWYQLIPGSAPRTLIYGDTSRASGVPDRFSGSRSGNTATLTISSLQAEDEADYFCASAEDSSSNAVFGSGTTLTVL
B2: the EC50 in assay [1] turned out to be 160 pM.

B3: R2D9 chimeric bovine-human IgG1 (ultralong CDR3) (antibody)
VH: QVQLRESGPSLVKPSQTLSLTCTASGFSLSDKAIGWVRQAPGKALEWLGSIDTRGNTGYNPGLKSRLSITKDSSKSQVSLSVNSVTTEDSATYLCAIVQQITHKTCPNGYNWFDRCCSWDGTCGDGCCSNRAWPSGNGRADSSIGETYGYEFHVAAWGQGLLVTVSS
VL: QAVLNQPSSVSGSLGQRVSITCSGSSSNVGNGYVSWYQLIPGSAPRTLIYGDTSRASGVPDRFSGSRSGNTATLTISSLQAEDEADYFCASAEDSSSNAVFGSGTTLTVL
Molecule B3 had an EC50 (read off the curve) in assay [3] of 30 pM.

B4: R4C1 chimeric bovine-human IgG1 (ultralong CDR3) (antibody)
VH: QVQLRESGPSLVKPSQTLSLTCTASGFSLSDKAVGWVRQAPGKPLEWLGSIDTAENTGYNPGLKSRLSITKDNSKSQVSLSVSSVTTEDSATYYCATVHQKTRKEKNCPDGYIYSSNTASGYDCGVWICRRVGSAFCSRTGDYTSPSEFDIYEFYVEGWGQGLLVTVSS
VL: QAVLNQPSSVSGSLGQRVSITCSGSSSNVGNGYVSWYQLIPGSAPRTLIYGDTSRASGVPDRFSGSRSGNTATLTISSLQAEDEADYFCASAEDSSSNAVFGSGTTLTVL
For the molecule B4, in assay [1], the EC50 was 200 pM. In addition, the EC50 (read off the curve) in assay [4] stood at 30 pM; in assay [2], 300 pM.
